# Test results as given in patent US20190119318A1.
# Target: human polyclonal IgG (Gammanorm) (human)
# Assay: SPR; vs reference Zvar4; 1 M NaOH
row,capacity relative to ref. 100 cycles,Substance
1,2.04,"Zvar(Q9A,N11E,N28A,N43A)4 (designed binder)"
2,2,"Zvar(Q9A,N11E,Q40V,A42K,N43E,L44I)4 (designed binder)"

# Target: human polyclonal IgG (Gammanorm) (human)
# Assay: SPR; after 100 CIP cycles 1 M NaOH
row,remaining capacity 100 cycles,Substance
1,55%,"Zvar(Q9A,N11E,N28A,N43A)4 (designed binder)"
2,54%,"Zvar(Q9A,N11E,Q40V,A42K,N43E,L44I)4 (designed binder)"

# Target: human polyclonal IgG (Gammanorm) (human)
# Assay: SPR; vs reference Zvar2; 0.5 M NaOH
row,capacity relative to ref. 100 cycles,Substance
1,1.26,"Zvar(Q9A,N11E,Q40V,A42K,N43A,L44I)2 with A56, P57 and K58 in linker deleted (designed binder)"
2,1.27,"Zvar(Q9A,N11E,Q40V,A42K,N43A,L44I)2 with D2, A3 and K4 in linker deleted (designed binder)"
3,1.3,"Zvar(Q9A,N11E,Q40V,A42K,N43A,L44I)2 with K4, F5, D6, K7 and E8 in linker deleted (designed binder)"
4,1.38,"Zvar(Q9A,N11E,Q40V,A42K,N43A,L44I)2 with K58, V1 and D2 in linker deleted (designed binder)"
5,1.35,"Zvar(Q9A,N11E,Q40V,A42K,N43A,L44I)2 with P57, K58, V1, D2 and A3 in linker deleted (designed binder)"
6,1.39,"Zvar(Q9A,N11E,Q40V,A42K,N43A,L44I)2 with V1, D2 and A3 in linker deleted (designed binder)"
7,1.13,"Zvar(Q9A,N11E,Q40V,A42K,N43A,L44I)2 with V1, D2, A3, K4, F5, D6, K7 and E8 in linker deleted (designed binder)"
8,1.31,"Zvar(Q9A,N11E,Q40V,A42K,N43A,L44I)2 with YEDG inserted in linker between K58 and V1 (designed binder)"

# Target: human polyclonal IgG (Gammanorm) (human)
# Assay: SPR; vs reference Zvar4; 0.5 M NaOH
capacity relative to ref. 100 cycles,capacity relative to ref. 200 cycles,capacity relative to ref. 300 cycles,Substance
1.13,–,–,"Zvar(Q9A,N11E,D37E,Q40V,A42K,N43A,L44I)4 (designed binder)"
1.17,–,–,"Zvar(Q9A,N11E,D37E,Q40V,A42R,N43A,L44I)4 (designed binder)"
1.19,1.72,2.62,"Zvar(Q9A,N11E,N28A,N43A)4 (designed binder)"
1.24,–,–,"Zvar(Q9A,N11E,N28A,Q40V,A42K,N43A,L44I)4 (designed binder)"
1.21,1.72,2.56,"Zvar(Q9A,N11E,N43A)4 (designed binder)"
1.25,1.81,3,"Zvar(Q9A,N11E,Q40V,A42K,N43E,L44I)4 (designed binder)"

# Target: human polyclonal IgG (Gammanorm) (human)
# Assay: SPR; after 100 CIP cycles 0.5 M NaOH
row,remaining capacity 100 cycles,Substance
1,81%,"Zvar(Q9A,N11E,D37E,Q40V,A42K,N43A,L44I)4 (designed binder)"
2,84%,"Zvar(Q9A,N11E,D37E,Q40V,A42R,N43A,L44I)4 (designed binder)"
3,80%,"Zvar(Q9A,N11E,N28A,N43A)4 (designed binder)"
4,84%,"Zvar(Q9A,N11E,N28A,Q40V,A42K,N43A,L44I)4 (designed binder)"
5,81%,"Zvar(Q9A,N11E,N43A)4 (designed binder)"
6,68%,"Zvar(Q9A,N11E,Q40V,A42K,N43A,L44I)2 with A56, P57 and K58 in linker deleted (designed binder)"
7,70%,"Zvar(Q9A,N11E,Q40V,A42K,N43A,L44I)2 with D2, A3 and K4 in linker deleted (designed binder)"
8,70%,"Zvar(Q9A,N11E,Q40V,A42K,N43A,L44I)2 with K4, F5, D6, K7 and E8 in linker deleted (designed binder)"
9,76%,"Zvar(Q9A,N11E,Q40V,A42K,N43A,L44I)2 with K58, V1 and D2 in linker deleted (designed binder)"
10,74%,"Zvar(Q9A,N11E,Q40V,A42K,N43A,L44I)2 with P57, K58, V1, D2 and A3 in linker deleted (designed binder)"
11,75%,"Zvar(Q9A,N11E,Q40V,A42K,N43A,L44I)2 with V1, D2 and A3 in linker deleted (designed binder)"
12,62%,"Zvar(Q9A,N11E,Q40V,A42K,N43A,L44I)2 with V1, D2, A3, K4, F5, D6, K7 and E8 in linker deleted (designed binder)"
13,72%,"Zvar(Q9A,N11E,Q40V,A42K,N43A,L44I)2 with YEDG inserted in linker between K58 and V1 (designed binder)"
14,84%,"Zvar(Q9A,N11E,Q40V,A42K,N43E,L44I)4 (designed binder)"

# Target: human polyclonal IgG (Gammanorm) (human)
# Assay: SPR; after 200 CIP cycles 0.5 M NaOH
row,remaining capacity 200 cycles,Substance
1,62%,"Zvar(Q9A,N11E,N28A,N43A)4 (designed binder)"
2,62%,"Zvar(Q9A,N11E,N43A)4 (designed binder)"
3,65%,"Zvar(Q9A,N11E,Q40V,A42K,N43E,L44I)4 (designed binder)"

# Target: human polyclonal IgG (Gammanorm) (human)
# Assay: SPR; after 300 CIP cycles 0.5 M NaOH
row,remaining capacity 300 cycles,Substance
1,42%,"Zvar(Q9A,N11E,N28A,N43A)4 (designed binder)"
2,41%,"Zvar(Q9A,N11E,N43A)4 (designed binder)"
3,48%,"Zvar(Q9A,N11E,Q40V,A42K,N43E,L44I)4 (designed binder)"

# Target: human polyclonal IgG (Gammanorm) (human)
# Assay: SPR; after 96-100 CIP cycles 0.5 M NaOH
capacity after 96-100 cycles,reference capacity after 96-100 cycles,Substance
53%,–,"Zvar(N11E,Q32E,K50R)1 (designed binder)"
59%,–,"Zvar(N11K,H18K,D37E,A42R,N43A,L44I)1 (designed binder)"
67%,–,"Zvar(N11K,H18K,S33K,D37E,A42R,N43A,L44I,K50R,L51Y)1 (designed binder)"
56%,–,"Zvar(Q9A,N11E,A29D,Q40V,A42K,N43A,L44I)1 (designed binder)"
57%,–,"Zvar(Q9A,N11E,A29E,Q40V,A42K,N43A,L44I)1 (designed binder)"
62%,–,"Zvar(Q9A,N11E,A29F,Q40V,A42K,N43A,L44I)1 (designed binder)"
57%,–,"Zvar(Q9A,N11E,A29H,Q40V,A42K,N43A,L44I)1 (designed binder)"
58%,–,"Zvar(Q9A,N11E,A29I,Q40V,A42K,N43A,L44I)1 (designed binder)"
59%,–,"Zvar(Q9A,N11E,A29K,Q40V,A42K,N43A,L44I)1 (designed binder)"
61%,–,"Zvar(Q9A,N11E,A29L,Q40V,A42K,N43A,L44I)1 (designed binder)"
62%,–,"Zvar(Q9A,N11E,A29M,Q40V,A42K,N43A,L44I)1 (designed binder)"
61%,–,"Zvar(Q9A,N11E,A29N,Q40V,A42K,N43A,L44I)1 (designed binder)"
60%,–,"Zvar(Q9A,N11E,A29Q,Q40V,A42K,N43A,L44I)1 (designed binder)"
58%,–,"Zvar(Q9A,N11E,A29R,Q40V,A42K,N43A,L44I)1 (designed binder)"
66%,–,"Zvar(Q9A,N11E,A29S,Q40V,A42K,N43A,L44I)1 (designed binder)"
60%,–,"Zvar(Q9A,N11E,A29T,Q40V,A42K,N43A,L44I)1 (designed binder)"
62%,–,"Zvar(Q9A,N11E,A29V,Q40V,A42K,N43A,L44I)1 (designed binder)"
60%,–,"Zvar(Q9A,N11E,A29W,Q40V,A42K,N43A,L44I)1 (designed binder)"

capacity after 96-100 cycles,reference capacity after 96-100 cycles,Substance
61%,–,"Zvar(Q9A,N11E,A29Y,Q40V,A42K,N43A,L44I)1 (designed binder)"
65%,–,"Zvar(Q9A,N11E,N28A,Q40V,A42K,N43A,L44I)1 (designed binder)"
66%,–,"Zvar(Q9A,N11E,Q40V,A42K,N43A,L44I)1 (designed binder)"
58%,–,"Zvar(Q9A,N11E,Q40V,A42K,N43A,L44I,D53F)1 (designed binder)"
65%,–,"Zvar(Q9A,N11E,Q40V,A42K,N43A,L44I,D53K)1 (designed binder)"
60%,–,"Zvar(Q9A,N11E,Q40V,A42K,N43A,L44I,D53R)1 (designed binder)"
62%,–,"Zvar(Q9A,N11E,Q40V,A42K,N43A,L44I,D53W)1 (designed binder)"
59%,–,"Zvar(Q9A,N11E,Q40V,A42K,N43A,L44I,D53Y)1 (designed binder)"
55%,–,"Zvar(Q9A,N11E,Q40V,A42K,N43del,L44I)1 (designed binder)"
57%,–,"Zvar(Q9A,N11E,Q40V,A42del,N43A,L44I)1 (designed binder)"
59%,–,"Zvar(Q9A,N11E,Q40del,A42K,N43A,L44I)1 (designed binder)"
63%,–,"Zvar(Q9A,N11K,H18K,D37E,A42R,N43A,L44I)1 (designed binder)"
67%,–,"Zvar(Q9A,N11K,H18K,D37E,A42R,N43A,L44I,K50R)1 (designed binder)"
59%,–,"Zvar(Q9A,N11K,H18K,S33K,D37E,A42R,N43A,L44I,K50R,L51Y)1 (designed binder)"
60%,–,"Zvar(Q9del,N11E,Q40V,A42K,N43A,L44I)1 (designed binder)"
–,35%,parental B domain of Staphylococcus Protein A (from UniProt A0A0H3K686 212-269)
–,49%,parental C domain of Staphylococcus Protein A (from UniProt A0A0H3K686 270-327)

# Target: human polyclonal IgG (Gammanorm) (human)
# Assay: SPR; vs reference Zvar1; 0.5 M NaOH cycles
row,capacity relative to reference,Substance
1,1.04,"Zvar(N11E,Q32E,K50R)1 (designed binder)"
2,1.31,"Zvar(N11K,H18K,D37E,A42R,N43A,L44I)1 (designed binder)"
3,1.46,"Zvar(N11K,H18K,S33K,D37E,A42R,N43A,L44I,K50R,L51Y)1 (designed binder)"
4,1.19,"Zvar(Q9A,N11E,A29D,Q40V,A42K,N43A,L44I)1 (designed binder)"
5,1.21,"Zvar(Q9A,N11E,A29E,Q40V,A42K,N43A,L44I)1 (designed binder)"
6,1.35,"Zvar(Q9A,N11E,A29F,Q40V,A42K,N43A,L44I)1 (designed binder)"
7,1.21,"Zvar(Q9A,N11E,A29H,Q40V,A42K,N43A,L44I)1 (designed binder)"
8,1.23,"Zvar(Q9A,N11E,A29I,Q40V,A42K,N43A,L44I)1 (designed binder)"
9,1.28,"Zvar(Q9A,N11E,A29K,Q40V,A42K,N43A,L44I)1 (designed binder)"
10,1.33,"Zvar(Q9A,N11E,A29L,Q40V,A42K,N43A,L44I)1 (designed binder)"
11,1.32,"Zvar(Q9A,N11E,A29M,Q40V,A42K,N43A,L44I)1 (designed binder)"
12,1.3,"Zvar(Q9A,N11E,A29N,Q40V,A42K,N43A,L44I)1 (designed binder)"
13,1.28,"Zvar(Q9A,N11E,A29Q,Q40V,A42K,N43A,L44I)1 (designed binder)"
14,1.26,"Zvar(Q9A,N11E,A29R,Q40V,A42K,N43A,L44I)1 (designed binder)"
15,1.38,"Zvar(Q9A,N11E,A29S,Q40V,A42K,N43A,L44I)1 (designed binder)"
16,1.28,"Zvar(Q9A,N11E,A29T,Q40V,A42K,N43A,L44I)1 (designed binder)"
17,1.32,"Zvar(Q9A,N11E,A29V,Q40V,A42K,N43A,L44I)1 (designed binder)"

row,capacity relative to reference,Substance
1,1.3,"Zvar(Q9A,N11E,A29W,Q40V,A42K,N43A,L44I)1 (designed binder)"
2,1.27,"Zvar(Q9A,N11E,A29Y,Q40V,A42K,N43A,L44I)1 (designed binder)"
3,1.35,"Zvar(Q9A,N11E,N28A,Q40V,A42K,N43A,L44I)1 (designed binder)"
4,1.4,"Zvar(Q9A,N11E,Q40V,A42K,N43A,L44I)1 (designed binder)"
5,1.26,"Zvar(Q9A,N11E,Q40V,A42K,N43A,L44I,D53F)1 (designed binder)"
6,1.41,"Zvar(Q9A,N11E,Q40V,A42K,N43A,L44I,D53K)1 (designed binder)"
7,1.3,"Zvar(Q9A,N11E,Q40V,A42K,N43A,L44I,D53R)1 (designed binder)"
8,1.35,"Zvar(Q9A,N11E,Q40V,A42K,N43A,L44I,D53W)1 (designed binder)"
9,1.28,"Zvar(Q9A,N11E,Q40V,A42K,N43A,L44I,D53Y)1 (designed binder)"
10,1.2,"Zvar(Q9A,N11E,Q40V,A42K,N43del,L44I)1 (designed binder)"
11,1.24,"Zvar(Q9A,N11E,Q40V,A42del,N43A,L44I)1 (designed binder)"
12,1.28,"Zvar(Q9A,N11E,Q40del,A42K,N43A,L44I)1 (designed binder)"
13,1.4,"Zvar(Q9A,N11K,H18K,D37E,A42R,N43A,L44I)1 (designed binder)"
14,1.49,"Zvar(Q9A,N11K,H18K,D37E,A42R,N43A,L44I,K50R)1 (designed binder)"
15,1.28,"Zvar(Q9A,N11K,H18K,S33K,D37E,A42R,N43A,L44I,K50R,L51Y)1 (designed binder)"
16,1.3,"Zvar(Q9del,N11E,Q40V,A42K,N43A,L44I)1 (designed binder)"

# Target: IgG1 monoclonal antibody (probe molecule)
# Assay: SPR (Biacore), ligand on CM5 chip, IgG1 mAb as probe
Kd,koff,kon,Substance
1.07 nM,0.000437 s⁻¹,410000 M⁻¹ s⁻¹,"Zvar(Q9A,N11E,Q40V,A42K,N43A,L44I)1 (designed binder)"
